Source: patent US20220025010A1 (ANTAG THERAPEUTICS, published 2022)
Where two headings read alike, the source gives them in different places. *1 amine or outer side, *2 acyl side, *3 side chain or, on linkers, in order; H or OH if unused. Where no end group is shown, it is not given here. Side-chain parts run from the residue outwards. [ ]: non-standard residue; d: D form. The star is where a group is joined. C18 diacid = O=C(O)CCCCCCCCCCCCCCCCC(=O)*; C16 diacid = O=C(O)CCCCCCCCCCCCCCC(=O)*; γGlu = O=C(O)[C@H](CCC(=O)[*:2])N[*:1]; pGlu = O=C1CC[C@@H](C(=O)O)N1; AEEA = NCCOCCOCC(=O)O

Columns and labels:
Assay in all cases: cell-based or functional assay
human GIP receptor [1] = target: T1, human GIP receptor (human, UniProt P48546 22-466)
T1 sequence (looked up): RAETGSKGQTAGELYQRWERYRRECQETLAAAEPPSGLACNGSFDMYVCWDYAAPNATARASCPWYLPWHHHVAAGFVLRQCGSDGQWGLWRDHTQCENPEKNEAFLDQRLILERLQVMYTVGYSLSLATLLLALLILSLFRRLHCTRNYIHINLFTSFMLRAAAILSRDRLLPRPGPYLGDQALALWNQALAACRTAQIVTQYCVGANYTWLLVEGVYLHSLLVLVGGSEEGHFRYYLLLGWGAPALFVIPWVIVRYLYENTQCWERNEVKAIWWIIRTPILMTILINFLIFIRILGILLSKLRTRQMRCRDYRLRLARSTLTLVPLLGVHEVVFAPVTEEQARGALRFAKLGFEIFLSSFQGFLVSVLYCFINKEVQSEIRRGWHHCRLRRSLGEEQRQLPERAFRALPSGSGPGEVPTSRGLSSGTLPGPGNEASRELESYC

human GIP receptor [2] = target: T1, human GIP receptor; remark: listed apart in the source
human GIP receptor [3] = target: T1, human GIP receptor; remark: listed apart in the source
GLP1 receptor = GLP1 receptor (UniProt P43220 24-463, limits assumed)
human GIP receptor [4] = target: T1, human GIP receptor; remark: listed apart in the source

B1: AT353 (peptide)
peptide: FISDYSIAMDKIK(C16 diacid)QQDFVNWLLAQK-NH2
modifications: N-terminus assumed
SMILES: CC[C@H](C)[C@H](NC(=O)[C@H](CO)NC(=O)[C@H](Cc1ccc(O)cc1)NC(=O)[C@H](CC(=O)O)NC(=O)[C@H](CO)NC(=O)[C@@H](NC(=O)[C@@H](N)Cc1ccccc1)[C@@H](C)CC)C(=O)N[C@@H](C)C(=O)N[C@@H](CCSC)C(=O)N[C@@H](CC(=O)O)C(=O)N[C@@H](CCCCN)C(=O)N[C@H](C(=O)N[C@@H](CCCCNC(=O)CCCCCCCCCCCCCCC(=O)O)C(=O)N[C@@H](CCC(N)=O)C(=O)N[C@@H](CCC(N)=O)C(=O)N[C@@H](CC(=O)O)C(=O)N[C@@H](Cc1ccccc1)C(=O)N[C@H](C(=O)N[C@@H](CC(N)=O)C(=O)N[C@@H](Cc1c[nH]c2ccccc12)C(=O)N[C@@H](CC(C)C)C(=O)N[C@@H](CC(C)C)C(=O)N[C@@H](C)C(=O)N[C@@H](CCC(N)=O)C(=O)N[C@@H](CCCCN)C(N)=O)C(C)C)[C@@H](C)CC
Human GIP receptor [1]
  CisBio cAMP agonism % Efficacy: 0%
  CisBio cAMP antagonism % inhib: 90%
  CisBio cAMP antagonism IC50: 25.1 nM
  CisBio cAMP antagonism pIC50: 7.6
Human GIP receptor [2]
  cAMP antagonism % inhib: 100%
  cAMP antagonism IC50: 9 nM
  cAMP antagonism log IC50: -8.1 log M
Human GIP receptor [3]
  CisBio cAMP antagonism % inhib: 90%
  CisBio cAMP antagonism IC50: 25.1 nM
  cAMP antagonism % inhib: 100%
  cAMP antagonism IC50: 9 nM
GLP1 receptor
  cAMP antagonism % inhib: 43%
  cAMP antagonism IC50: 169 nM
  cAMP antagonism index: 44
  cAMP antagonism log IC50: -6.8 log M

## [pGlu]GTFISDYSIAMDRIK([AEEA-AEEA-AEEA-γGlu-C16 diacid])QQDFVNWLLAQR-NH2 [AT380]
Human GIP receptor [4]
  cAMP antagonism IC50 (finer than Table 1B): 7.3 nM
Human GIP receptor [1]
  CisBio cAMP agonism % Efficacy: 8%
  CisBio cAMP antagonism % inhib: 82%
  CisBio cAMP antagonism IC50: 85.8 nM
  CisBio cAMP antagonism pIC50: 7.1
  DiscoveRx cAMP antagonism % inhib: 100%
  DiscoveRx cAMP antagonism IC50: 7 nM
  DiscoveRx cAMP antagonism log IC50: -8.1 log M

## [pGlu]GTFISDYSIAMDRIK(C16 diacid)QQDFVNWLLAQR-NH2 [AT390]
Human GIP receptor [4]
  cAMP antagonism IC50 (finer than Table 1B): 0.8 nM
Human GIP receptor [1]
  CisBio cAMP agonism % Efficacy: 4%
  CisBio cAMP antagonism % inhib: 81%
  CisBio cAMP antagonism IC50: 15.9 nM
  CisBio cAMP antagonism pIC50: 7.8
  DiscoveRx cAMP antagonism % inhib: 100%
  DiscoveRx cAMP antagonism IC50: 1 nM
  DiscoveRx cAMP antagonism log IC50: -9.1 log M

B2: AT277 (peptide)
peptide: SGTFISDYSIAMDRIK([AEEA-AEEA-γGlu-C16 diacid])QQDFVNWLLAQR-OH
modifications: N-terminus assumed
SMILES: CC[C@H](C)[C@H](NC(=O)[C@H](CO)NC(=O)[C@H](Cc1ccc(O)cc1)NC(=O)[C@H](CC(=O)O)NC(=O)[C@H](CO)NC(=O)[C@@H](NC(=O)[C@H](Cc1ccccc1)NC(=O)[C@@H](NC(=O)CNC(=O)[C@@H](N)CO)[C@@H](C)O)[C@@H](C)CC)C(=O)N[C@@H](C)C(=O)N[C@@H](CCSC)C(=O)N[C@@H](CC(=O)O)C(=O)N[C@@H](CCCNC(=N)N)C(=O)N[C@H](C(=O)N[C@@H](CCCCNC(=O)COCCOCCNC(=O)COCCOCCNC(=O)CC[C@H](NC(=O)CCCCCCCCCCCCCCC(=O)O)C(=O)O)C(=O)N[C@@H](CCC(N)=O)C(=O)N[C@@H](CCC(N)=O)C(=O)N[C@@H](CC(=O)O)C(=O)N[C@@H](Cc1ccccc1)C(=O)N[C@H](C(=O)N[C@@H](CC(N)=O)C(=O)N[C@@H](Cc1c[nH]c2ccccc12)C(=O)N[C@@H](CC(C)C)C(=O)N[C@@H](CC(C)C)C(=O)N[C@@H](C)C(=O)N[C@@H](CCC(N)=O)C(=O)N[C@@H](CCCNC(=N)N)C(=O)O)C(C)C)[C@@H](C)CC
Human GIP receptor [1]
  CisBio cAMP agonism % Efficacy: 8%
  CisBio cAMP antagonism % inhib: 84%
  CisBio cAMP antagonism IC50: 31.6 nM
  CisBio cAMP antagonism pIC50: 7.5
  DiscoveRx cAMP agonism Emax: 9
  DiscoveRx cAMP antagonism IC50: 16 nM
  DiscoveRx cAMP antagonism log IC50: -7.8 log M
Human GIP receptor [3]
  CisBio cAMP antagonism % inhib: 84%
  CisBio cAMP antagonism IC50: 31.6 nM
  cAMP antagonism IC50: 16 nM
GLP1 receptor
  cAMP antagonism % inhib: 68%
  cAMP antagonism IC50: 6100 nM
  cAMP antagonism index: 561
  cAMP antagonism log IC50: -5.2 log M

B3: AT357 (peptide)
peptide: YSIAMDKIK(C16 diacid)QQDFVNWLLAQK-NH2
modifications: N-terminus assumed
SMILES: CC[C@H](C)[C@H](NC(=O)[C@H](CO)NC(=O)[C@@H](N)Cc1ccc(O)cc1)C(=O)N[C@@H](C)C(=O)N[C@@H](CCSC)C(=O)N[C@@H](CC(=O)O)C(=O)N[C@@H](CCCCN)C(=O)N[C@H](C(=O)N[C@@H](CCCCNC(=O)CCCCCCCCCCCCCCC(=O)O)C(=O)N[C@@H](CCC(N)=O)C(=O)N[C@@H](CCC(N)=O)C(=O)N[C@@H](CC(=O)O)C(=O)N[C@@H](Cc1ccccc1)C(=O)N[C@H](C(=O)N[C@@H](CC(N)=O)C(=O)N[C@@H](Cc1c[nH]c2ccccc12)C(=O)N[C@@H](CC(C)C)C(=O)N[C@@H](CC(C)C)C(=O)N[C@@H](C)C(=O)N[C@@H](CCC(N)=O)C(=O)N[C@@H](CCCCN)C(N)=O)C(C)C)[C@@H](C)CC
Human GIP receptor [1]
  CisBio cAMP agonism % Efficacy: 0%
  CisBio cAMP antagonism % inhib: 40%
  CisBio cAMP antagonism IC50: 178 nM
  CisBio cAMP antagonism pIC50: 6.8
Human GIP receptor [2]
  cAMP antagonism % inhib: 100%
  cAMP antagonism IC50: 528 nM
  cAMP antagonism log IC50: -6.3 log M

## [pGlu]GTFISDYSIAMDRIK([AEEA-AEEA-AEEA-γGlu-C18 diacid])QQDFVNWLLAQR-NH2 [AT382]
Human GIP receptor [4]
  cAMP antagonism IC50 (finer than Table 1B): 1.8 nM
Human GIP receptor [1]
  CisBio cAMP agonism % Efficacy: 0%
  CisBio cAMP antagonism % inhib: 83%
  CisBio cAMP antagonism IC50: 25.1 nM
  CisBio cAMP antagonism pIC50: 7.6
  DiscoveRx cAMP antagonism % inhib: 100%
  DiscoveRx cAMP antagonism IC50: 2 nM
  DiscoveRx cAMP antagonism log IC50: -8.7 log M
Human GIP receptor [3]
  CisBio cAMP antagonism % inhib: 83%
  CisBio cAMP antagonism IC50: 25.1 nM
  cAMP antagonism % inhib: 100%
  cAMP antagonism IC50: 2 nM

B4: AT392 (peptide)
peptide: SGTFISDYSIAMDRIK(C16 diacid)QQDFVNWLLAQR-NH2
modifications: N-terminus assumed
SMILES: CC[C@H](C)[C@H](NC(=O)[C@H](CO)NC(=O)[C@H](Cc1ccc(O)cc1)NC(=O)[C@H](CC(=O)O)NC(=O)[C@H](CO)NC(=O)[C@@H](NC(=O)[C@H](Cc1ccccc1)NC(=O)[C@@H](NC(=O)CNC(=O)[C@@H](N)CO)[C@@H](C)O)[C@@H](C)CC)C(=O)N[C@@H](C)C(=O)N[C@@H](CCSC)C(=O)N[C@@H](CC(=O)O)C(=O)N[C@@H](CCCNC(=N)N)C(=O)N[C@H](C(=O)N[C@@H](CCCCNC(=O)CCCCCCCCCCCCCCC(=O)O)C(=O)N[C@@H](CCC(N)=O)C(=O)N[C@@H](CCC(N)=O)C(=O)N[C@@H](CC(=O)O)C(=O)N[C@@H](Cc1ccccc1)C(=O)N[C@H](C(=O)N[C@@H](CC(N)=O)C(=O)N[C@@H](Cc1c[nH]c2ccccc12)C(=O)N[C@@H](CC(C)C)C(=O)N[C@@H](CC(C)C)C(=O)N[C@@H](C)C(=O)N[C@@H](CCC(N)=O)C(=O)N[C@@H](CCCNC(=N)N)C(N)=O)C(C)C)[C@@H](C)CC
Human GIP receptor [4]
  cAMP antagonism IC50 (finer than Table 1B): 0.6 nM
Human GIP receptor [1]
  CisBio cAMP antagonism pIC50: 7.2
  DiscoveRx cAMP antagonism log IC50: -9.2 log M
Human GIP receptor [3]
  CisBio cAMP antagonism % inhib: 96%
  CisBio cAMP antagonism IC50: 68.1 nM
  cAMP antagonism % inhib: 93%
  cAMP antagonism IC50: 1 nM
